Data published in US8691772B2, “HSP60, HSP60 peptides and T cell vaccines for immunomodulation” (Yeda Research and Development Co. Ltd., priority 2005, dated 2014).

Experiments:
[1] = test system: CD8^+ T cells; test: Co-culture of treated CD4+CD25+ T cells with CD8+ T cells; format: cell-based, human; settings: 1% or more HSP60-treated CD4+CD25+ T cells; anti-CD3 24 hr
[2] = test system: AKT, Pyk-2, p38, ERK, NF-κB, T-bet; test: Western blot analysis of CD4+CD25+ / CD4+CD25- T-cell lysates; format: cell-based, human
Source text: CFSE labeling of CD4^+CD25^− T cells. CD4^+CD25^− T cells were labeled with Vybrant™ CFDA SE Cell Tracer Kit (Molecular Probes; Eugene, Oreg.) according to the manufacturer's instructions. Labeled CD4^+CD25^− T cells were co-cultured with CD4^+CD25^+ T cells on anti-CD3 mAb, as described above, for 6 hr. After co-culture, CD4^+CD25^− T cells were isolated by sorting using a Becton Dickinson FACSVantage (Mountain View, Calif.).
Western blot analysis of T-cell lysates. Indicated populations of T cells (5×10^6) were preincubated with 1 ng/ml of HSP60 for 10 min (37° C. in a 7% CO2, humidified atmosphere). […] Total cell lysates, nuclear and cytoplasmic extracts were prepared as previously described (Zanin-Zhorov et al., 2003, section D of the Examples herein), analyzed for protein content. Sample buffer was then added and, after boiling, the samples, containing equal amounts of proteins, were separated on 10% SDS-PAGE gel and transferred to nitrocellulose membranes. The membranes were blocked and probed with the following mAb in the same buffer: anti-phosphorylated (p) ERK. […]

[3] = test system: ConA-induced hepatitis; test: ConA-induced hepatitis (acute liver injury); format: in vivo, BALB/c mice
[4] = i.p. 330 μl, 500 ng/ml, 18 and 1 hr prior to ConA, 24 hr after ConA

B1: HSP60: recombinant human heat shock protein 60 (StressGen Biotechnologies) (protein)
chain: AKDVKFGADARALMLQGVDLLADAVAVTMGPKGRTVIIEQSWGSPKVTKDGVTVAKSIDLKDKYKNIGAKLVQDVANNTNEEAGDGTTTATVLARSIAKEGFEKISKGANPVEIRRGVMLAVDAVIAELKKQSKPVTTPEEIAQVATISANGDKEIGNIISDAMKKVGRKGVITVKDGKTLNDELEIIEGMKFDRGYISPYFINTSKGQKCEFQDAYVLLSEKKISSIQSIVPALEIANAHRKPLVIIAEDVDGEALSTLVLNRLKVGLQVVAVKAPGFGDNRKNQLKDMAIATGGAVFGEEGLTLNLEDVQPHDLGKVGEVIVTKDDAMLLKGKGDKAQIEKRIQEIIEQLDVTTSEYEKEKLNERLAKLSDGVAVLKVGGTSDVEVNEKKDRVTDALNATRAAVEEGIVLGGGCALLRCIPALDSLTPANEDQKIGIEIIKRTLKIPAMTIAKNAGVEGSLIVEKIMQSSSEVGYDAMAGDFVNMVEKGIIDPTKVVRTALLDAAGVASLLTTAEVVVTEIPKEEKDPGMGAMGGMGGGMGGGMF
- inhibition of IFN-γ or TNF-α secretion in co-culture with CD8+ T cells [1]: 3-4 fold
- phosphorylation of AKT, Pyk-2, and p38 ([2]; CD4+CD25+ T cells, 1 ng/ml, 10 min): induced phosphorylation of AKT, Pyk-2, and p38
- ERK phosphorylation, NF-κB nuclear translocation and T-bet expression in CD4+CD25- T cells ([2]; co-culture with HSP60-treated CD4+CD25+ (1:9), anti-CD3, 6 hr): down-regulation of ERK phosphorylation, inhibition of nuclear translocation of NF-κB and T-bet expression
- serum level of IL-6 ([3]; 2 hr after ConA): to a lesser extent
- serum level of IL-10 ([3]; 2 hr after ConA): increasing the level of IL-10
- serum level of TNF-α ([3]; 2 hr after ConA): reduced the levels of TNFα
- histopathologic examination of liver sections ([3]; 24 hr after ConA): only minimal liver damage
- GATA-3 expression in splenic T cells ([3]; P<0.05): significantly augmenting the expression
- serum ALT [3, 4]: significantly (P≦0.05) inhibited the secretion of AST and ALT
- serum AST [3, 4]: significantly (P≦0.05) inhibited the secretion of AST and ALT
- SOCS3 expression in splenic T cells ([3]; mice treated with HSP60 only): became elevated following HSP60 treatment
- SOCS3 expression in splenic T cells ([3]; mice treated with both ConA and HSP60): even more elevated
- ConA-induced T-bet expression in splenic T cells ([3]; mouse, in vivo): suppressed the ConA-induced expression
